Experimental findings from the supplement of paper PMC10567573 are described below.

The data set can be described thus: protein stability index of a GFP-peptide fusion (GPS, HEK-293T) (PSI 1-6); higher = more stable. The note with it: c terminus: a fixed tail appended.

± gives the standard deviation.
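Further: 24-mer peptide tiles fused after GFP, lentivirally expressed, FACS-sorted into six equal bins by GFP/DsRed ratio, decoded by Illumina sequencing, PSI is the read-weighted mean bin number.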

In the case of SKDWVFLNYTYKRFEGLTQRGSIP [STK38L], the protein stability index came out at 2.54 ± 0.78 (treatment: DMSO) and 2.48 ± 1 (treatment: MLN4924 1 uM, 8 h).
On to SKMDQLAKELTAEKRLEGQEEEED [CHGA], for which the protein stability index was 5.54 ± 0.34 (treatment: DMSO) and 5.42 ± 0.36 (treatment: MLN4924 1 uM, 8 h).
On the same counts, the results for SKNEVGIFTTPNFDETSSATTIST [KMT2E] are 4.76 ± 0.22 and 4.79 ± 0.17.
On the same counts, the results for SLADGGSASPIKDQPVMAVKTGED [FANCE] are 5.46 ± 0.23 and 5.6 ± 0.16.
With SLGQDLRRLRQELLKTEALKRQAQ [DAPK3], the protein stability index was determined as 3.09 ± 0.59 (treatment: DMSO) and 2.96 ± 0.14 (treatment: MLN4924 1 uM, 8 h).
The matching figures for SLQNSLECAMETTEEQTRQERQGP [NECAB1]: 5.09 ± 0.17 and 5.22 ± 0.25.
On the same counts, the results for SMGFSARYNFTPDPDFKDLGALKP [NETO1] are 3.02 ± 0.33 and 3.26 ± 0.17.
On the same counts, the results for SNFDDFPESDILQPVPNTTEPDYK [STK38L] are 5.59 ± 0.25 and 5.24 ± 0.29.
In the case of SNNITLREDQLDTVLAVLEDSSRD [INTS4], the protein stability index came to 5.25 ± 0.18 (treatment: DMSO) and 5.28 ± 0.16 (treatment: MLN4924 1 uM, 8 h).
The matching figures for SNVQEVRCPVTVCGDVHGQFHDLM [PPP2CA]: 3.54 ± 0.41 and 3.49 ± 0.31.
On the same counts, the results for SPRRSLYKLVGSPPWKEAFRQRCL [RPAIN] are 2.27 ± 0.26 and 2.4 ± 0.23.
The matching figures for SPRRVGFVGAGRMAGAIAQGLIRA [PYCR3]: 2.66 ± 0.15 and 2.78 ± 0.14.
Consider SPSTRGSPNRSLPSPGVLCGSARP [ATF4], for which the protein stability index worked out at 4.49 ± 0.46 (treatment: DMSO) and 4.88 ± 0.18 (treatment: MLN4924 1 uM, 8 h).
The matching figures for SPWNFLGDELYEQSDEEQDSVKVA [CLPTM1]: 5.32 ± 0.21 and 5.36 ± 0.4.
On to SQGLAREQHAGTSEGLHLAGTAGH [FBF1], for which the protein stability index (treatment: DMSO) is 4.76 ± 0.16 and the protein stability index (treatment: MLN4924 1 uM, 8 h) amounted to 4.84 ± 0.36.
On the same counts, the results for SQIRLNREHKETCEMDWSDKMEAY [TEKT4] are 4.47 ± 0.11 and 4.58 ± 0.28.
In the case of SQSHCYRTCFSPASDGSDFTFLRP [PCDHGC5], the protein stability index is 2.15 ± 0.26 (treatment: DMSO) and 2.09 ± 0.16 (treatment: MLN4924 1 uM, 8 h).
On the same counts, the results for SRAEPIRTTVFQYPVGWPPVQELP [ZMAT5] are 2.38 ± 0.41 and 2.82 ± 0.34.
As to SRAPQLHLEYRFYKQLGSAGEGLP [CSNK1G1], the protein stability index reads like this: (treatment: DMSO) 2.73 ± 0.44; (treatment: MLN4924 1 uM, 8 h) 2.84 ± 0.19.
On the same counts, the results for SRKSSIPNNKEIPSHHPTDPVELR [PTPRD] are 4.83 ± 0.1 and 5.04 ± 0.35.
On the same counts, the results for SRREIRKIMGVEEEDDDDDDDDNL [ANKRD40] are 5.44 ± 0.12 and 5.53 ± 0.16.
Consider SRVAGFNPALQLILTRTDKTLNKK [TOR1AIP2], for which the protein stability index runs as follows: (treatment: DMSO) 4.25 ± 0.3; (treatment: MLN4924 1 uM, 8 h) 4.33 ± 0.18.
The matching figures for SRVTDAAFNFLLVWYYCTLTIRES [TMEM120A]: 3 ± 0.1 and 2.62 ± 0.45.
The matching figures for SRYRSLRPNRQLGSMVEIAKQLQA [TRIM39]: 2.74 ± 0.28 and 2.92 ± 0.34.
On the same counts, the results for SSEHVTESVADLLALEEPVDYKQS [SLC6A17] are 5.17 ± 0.26 and 5.25 ± 0.34.
In the case of SSETPPPPPPPNEINPPPHTMEEE [EIF5], the protein stability index was 5.52 ± 0.31 (treatment: DMSO) and 5.46 ± 0.3 (treatment: MLN4924 1 uM, 8 h).
The matching figures for SSFSDPFFVVETLCIIWFSFELLV [KCNA3]: 3.06 ± 0.48 and 3.2 ± 0.32.
Consider SSMLTGILWDTLLRLCAWGLASWP [POMT2], for which the protein stability index by setting is: (treatment: DMSO) 3.12 ± 0.62; (treatment: MLN4924 1 uM, 8 h) 2.66 ± 0.61.
The matching figures for SSPVTTLTQTMHDLAGLGSETPKS [CDC25B]: 4.97 ± 0.31 and 5.13 ± 0.14.
Take SSSDLVMRARDSVYHIECFRCSVC [ISL2]: the protein stability index came out at 2.5 ± 0.33 (treatment: DMSO) and 2.72 ± 0.51 (treatment: MLN4924 1 uM, 8 h).
On the same counts, the results for SSSSSSSSSSSSSSSSGPGHGEPD [TMEM40] are 5.49 ± 0.36 and 5.4 ± 0.35.
On the same counts, the results for SSYSSCYSFGSGGGYGSSFGGVDG [KRT17] are 2.69 ± 0.38 and 2.53 ± 0.2.
On the same counts, the results for STFASLIGPFGGFFASGFKRAFKI [CDS2] are 2.21 ± 0.44 and 2.37 ± 0.38.
As for STRQTQSWTAVTPQQTWASPAEVV [C18orf25], the protein stability index came to 3.63 ± 0.078 (treatment: DMSO) and 3.98 ± 0.24 (treatment: MLN4924 1 uM, 8 h).
As for STSQGCAQPQGAPCCSSSPEEPLN [FEM1A], the protein stability index runs as follows: (treatment: DMSO) 5.37 ± 0.23; (treatment: MLN4924 1 uM, 8 h) 5.32 ± 0.15.
STWALYGRAVDQDKVLRFAQQIRL [MYORG] registered a protein stability index (treatment: DMSO) of 2.29 ± 0.23 and a protein stability index (treatment: MLN4924 1 uM, 8 h) of 2.25 ± 0.33.
SVLNGKFANLIKEFVIIDCRYPYE [CDC25A]: the protein stability index runs as follows: (treatment: DMSO) 2.63 ± 0.36; (treatment: MLN4924 1 uM, 8 h) 2.55 ± 1.
On the same counts, the results for SVNWRTGSFHGPGHISLRRENSSD [DLC1] are 3.78 ± 0.21 and 3.86 ± 0.2.
On the same counts, the results for SVREVTQIKCIELKSELGRKWHKA [P2RY14] are 2.83 ± 0.24 and 3.23 ± 0.29.
With SWWADLRALARNLIFGLITCLTGV [SPNS1], the protein stability index amounted to 3.88 ± 0.43 (treatment: DMSO) and 3.92 ± 0.24 (treatment: MLN4924 1 uM, 8 h).
On the same counts, the results for SWYHWKGFEFSVPFTEMKLRPRNF [TNXB] are 2.47 ± 0.81 and 3.15 ± 0.53.
Regarding TCSRVDYCLLSDHGCEYSCVNMDR [MATN2], the protein stability index was determined as 2.84 ± 0.24 (treatment: DMSO) and 2.82 ± 0.32 (treatment: MLN4924 1 uM, 8 h).
The matching figures for TCVAVGSPMPYVKWMLGAEDLTPE [PTPRD]: 2.97 ± 0.33 and 3.14 ± 0.38.
As to TDANLPSGGKGFKLRRQPSEPKRS [RAB22A], the protein stability index by setting is: (treatment: DMSO) 4.88 ± 0.41; (treatment: MLN4924 1 uM, 8 h) 5.08 ± 0.17.
The matching figures for TDGGGWLVFQRRMDGQTDFWRDWE [TNXB]: 2.33 ± 0.53 and 2.25 ± 0.65.
The matching figures for TDGMILGPEDLSYQIYDVSGESNS [LARP4]: 4.71 ± 0.22 and 4.58 ± 0.37.
On the same counts, the results for TEDSPLGTVVALLNVHDLDSEQNG [PCDHGA10] are 4.86 ± 0.18 and 4.94 ± 0.27.
On to TEKLKANAESSKTWLKGKFTELRL [TRIM14], for which the protein stability index is, setting by setting: (treatment: DMSO) 2.53 ± 0.43; (treatment: MLN4924 1 uM, 8 h) 2.48 ± 0.42.
As for TEPEDDRGPVVPKHSTFGQSLTQR [GNAS], the protein stability index reads like this: (treatment: DMSO) 4.89 ± 0.31; (treatment: MLN4924 1 uM, 8 h) 4.85 ± 0.2.
On the same counts, the results for TGEFLKLPFERLAFVLSSNSLKHC [KLHL13] are 2.55 ± 0.73 and 2.85 ± 0.52.
On to TGTVHRIDNTTVIYNSNIFTDPFF [KCNA1], for which the protein stability index by setting is: (treatment: DMSO) 2.89 ± 0.27; (treatment: MLN4924 1 uM, 8 h) 3.05 ± 0.2.
The matching figures for THQHWQQFEPQLTLWDVFGANKEV [RSAD1]: 2.65 ± 0.34 and 2.66 ± 0.24.
